{"source": "the DeepSol protein solubility set"}
{"assay": "soluble on expression in E. coli; label from the status in PepcDB or PDB records"}
{"sequence": "SLQLRPSFLLSSLRPSLTGARRLVETIFLGSRPWMPGTPRRLPRLPQRYWQMRPLFLELLGNHAQCPYGVLLKTHCPLRAAVTPAAGVCAREKPQGSVAAPEEEDTDPRRLVQLLRQHSSPWQVYGFVRACLRRLVPPGLWGSRHNERRFLRNTKKFISLGKHAKLSLQELTWKMSVRDCAWLRRSPGVGCVPAAEHRLREEILAKFLHWLMSVYVVELLRSFFYVTETTFQKNRLFFYRKSVWSKLQSIGIRQHLKRVQLREEG", "soluble on expression in E. coli": "not soluble"}
{"sequence": "MGSDKIHHHHHHLNQERFDYRTGILASPSEVDAAEWNALLAQQPQPTPFLRHEFLSALHATRCAVADTGWAPQFVTLTDPRTDKLVAAAPVYLKGHSYGEYVFDWAWADAYKRNGLPYYPKLLCAVPFTPVQGNRLLSADTHALRHLAATLMAFAEQADVSSLHVLFPTETEANALTEMGMMQREGVQFHWLNDGYRDFDDFLSTLEQKKRKNIRAERRKVHEAGVTMRRIRGEDIQDADWRFFSKCYRQTYREHFSSPYLNLDFFRMIGESMPENLLLVIAEYEGKPIASSLVVYQRDAKTGGTLYGRYWGALEHVPCLHFETAYYQPLEFCIEEKLGAFEGGAQGEHKMARGFLPTVTRSAHWLAHPAFADAVGHFLDNEKNSIHAYVDELREHNPFKG", "soluble on expression in E. coli": "not soluble"}
{"sequence": "MKRKFLIGSHGRLASGLQSSIDILAGMGQALETIDAYVDDSDYTSQIDDFIAGVAADEQGLIFTDLLGGSVNQKMVTAVMNSGKDNIFLITNSNLATLLSLVFLKPGEALTKDEIVTVINESQVQLVDLVPETNSEDDFFD", "soluble on expression in E. coli": "not soluble"}
{"sequence": "MSDVEKKSETQEAAPKKKPYNLREKKEKKAAYRSLIRAELADELYDKILNIVVVQKKYKDPNYSAKDLAKELKTNTRYLSAVVNSRFGMNYSCLLNEYRIKDALHLLVDKRYMDKNVEEISAMVGFANRQSFYAAFYKNVGETPNGYRKRNQEKK", "soluble on expression in E. coli": "not soluble"}
{"sequence": "MGSDKIHHHHHHQEQVKVVDRTIRIGDAMEHPVPMKLSAFVDSITYVPLETTKSYVKDKMLISYVKPYWGVYPGSLFDKEGRFVANIGALGQGPGEESGFGYSIFYDRDRNIFYTQGDKIIQFDAKGKFTGKEIRIAYRDKGIEGKIASGLKNVYAMVKSGKDYLIVNYPDSIFWMDAELNVRHGDRIISDSLFLTPSGVGGGMPYTFSDYKDTTIFYNCFTDAIYTVTDTGLQKRWTLEFKGSKADNRCFLNDYKKLYLDEYVKIVSSSKGNVETMKEKAQNSELAQLIDNKKWVYHVSEGERYLFLWWLNLKAFSSAWRGYNESHIALYDKRTGEAVAIAGDGLIDDIDNGMTFFPRYGICNNAMVSSVWPFELKEYIQEKKAKGEAVSDRLIALADSLDDEQNPILVIAHLKK", "soluble on expression in E. coli": "not soluble"}
{"sequence": "MTNDDKCTSFFDKNYQTPEFIENKKRQAQQGRRRFLKSAAGMGALASLPALSVSAKAQTSLNELLKTLVKTDPWLTLDATLNQLLPSSPTGPSASEIRATAYLYQVMTVQPTEQDEKDFILKGVGWLNGYANSEKSANFAQLSFADKEQLLRGISNSTAGQNWLNTLLGYIFQAMLSPASYGGNPDGIGWAWLEHQAGFPMPEKGQRYFELPTRARIDLISRVNYDAKRLASSRNKSHQGTKKS", "soluble on expression in E. coli": "not soluble"}
{"sequence": "GMKLLLTRPEGKNAAMASALDALAIPYLVEPLLSVEAAAVTQAQLDELSRADILIFISTSAVSFATPWLKDQWPKATYYAVGDATADALALQGITAERSPADSQATEGLLTLPSLEQVSGKQIVIVRGKGGREAMADGLRLRGANVSYLEVYQRACPPLDAPASVSRWQSFGIDTIVVTSGEVLENLINLVPKDSFAWLRDCHIIVPSARVETQARKKGLRRVTNAGAANQAAVLDALGM", "soluble on expression in E. coli": "soluble"}
{"sequence": "GSALRELKVCLLGDTGVGKSSIMWRFVEDSFDPNINPTIGASFMTKTVQYQNELHKFLIWDTAGLERFRALAPMYYRGSAAAIIVYDITKEETFSTLKNWVRELRQHGPPSIVVAIAGNKCDLTDVREVMERDAKDYADSIHAIFVETSAKNAININELFIEISRRIPST", "soluble on expression in E. coli": "soluble"}
{"sequence": "MGSDKIHHHHHHMIYIGLPQWSHPKWARLGITSLEEYARHFNCVEGNTTLYALPKAEIVDRWYAQTTDDFRFCFKFPATISHQAALRHCDDLVQAFFTRLAPLETRIGQYWLQLPAAFGPRDLPALWQFLDALPATFTYGVEVRHPCFFDKGEDEQRLNRGLHARGVNRVILDSRPVHAAHPHSEAVRDAQRKKPKVPVHAVVTASHPMVRFIGSDNMAQNREFFAAWLQKLPQWRQTTTPFLFLHTPDIAQAPELVNTLWHDLRSVLPEIGTAPSIPQQSSLF", "soluble on expression in E. coli": "not soluble"}
{"sequence": "MTGSQEDQPKIIIDQEQPKTLETEHQPEPSSSSPDQKKWGTHVMGAPAAPVAHPDNQQAAAWVAGDNQQTQYQPYVIYSPVEHPTTNNPLEPVIGMFHTWSRKAETVARNLWHNLKTGPSMSETAWGKVNLTAKAITKGGFESLFRQIFGTEPNETLKKTFACYLSTTTGPVAGTVYLSNARVAFCSDRPLYFTAPSGQESWSYYRVVVPLANVATVNPVVVKETPPEKYIQLTTVDGHDFWFMGFVNYEKATHHLLTSVSDFQTAHGSVSG", "soluble on expression in E. coli": "soluble"}
{"sequence": "MGSDKIHHHHHHQMEERLGNTSQELQSLQVQNIKLAGSLQHVAEKLCRELYNKAGAHRCSPCTEQWKWHGDNCYQFYKDSKSWEDCKYFCLSENSTMLKINKQEDLEFAASQSYSEFFYSYWTGLLRPDSGKAWLWMDGTPFTSELFHIIIDVTSPRSRDCVAILNGMIFSKDCKELKRCVCERRAGMVKPE", "soluble on expression in E. coli": "not soluble"}
{"sequence": "MRTISFFNNKGGVGKTTLSTNVAHYFALQGKRVLYVDCDPQCNATQLMLTEEQTESIYLDGLNDEVAERNSLAKTVYAIFVPLREGESQIAAEITPMRSERFGVDVLPGHPALSQIEDLMSDSWQSALGRQTGPFRRIHWAGQLAHAMERDDRYDVIFFDVGPSLGPFNRTVLLGCDAFVTPTATDLFSFHAFGNLARWFDAWVTQYAEIHEGNMAEWKKYSADVEAKTRPLRLGGFDGEGLRYLGYTTLEYVKRRANGQEQLVGAFERFRGRFAAEAERISNSLSKHSNSTLLGHVPHMHSMPATAQDVHAPIMELSSSDRVRGAQINQRNAYAEKINSVAANVYKALFPNELEHHHHHH", "soluble on expression in E. coli": "soluble"}
{"sequence": "MAQNNENALPDITKSITLEAPIQKVWETVSTSEGIAKWFMPNDFQLKEGQEFHLQSPFGPSPCKVLAVQAPTELSFEWDTEGWVVTFQLEDLGEKTGFTLIHSGWKEPNEVIGKANEKSSVVRGKMDGGWTGIVNERLRKAVEELEHHHHHH", "soluble on expression in E. coli": "soluble"}
{"sequence": "MHYHGSCHCGTIRFDVEGELTGAMSCNCSICRRKGALLWFVPRDHLRLATPDEQIATYTFNRHLIKHRFCPTCGIHTHGEGVDQQGRAMAAINIRCLDDVDLDAVAVHQYDGRAALEHHHHHH", "soluble on expression in E. coli": "soluble"}
{"sequence": "MGSDKIHHHHHHMSRPRIHPLQALFGAHEHRPDLPVCDHYAGVEPRMRKALALQADMADTALFDVTLDLEDGAPVGGEPEHARLAAELVSSAANRHGRVGVRVHPYPHPSFADDVRSLLAGAGERLAYLMIPKAQGVEELRDAIAAIEATRREQGLARAVPVHALVETHGALRDVQAIAALPAIESLSFGLMDFVSAHHGAIPAFGMSLAGQFSHPLVLRAKLEISAACHAAGKLPSHCVVTEYSDTQAIAQAATRASRELGYARMWSIHPNQIRPIVEAFAPVPAEIEAALDILLAAQAADWAPIAHRGLLQDRASYRYHWHVLERAARTGRSLPDTARSAFFATAAA", "soluble on expression in E. coli": "not soluble"}
{"sequence": "MKIATYNVRVDTEYDQDWQWSFRKEAVCQLINFHDWSLCCIQEVRPNQVRDLKAYTTFTCLSAEREGDGQGEGLAILYNEQKVQAIDTGYFWLSETPQQPSIHPEAGCPRIALWGLFKETTQNTPFLVINVHLDHISAHARLAGMTVILEELHDKIAQYPTLLMGDFNAESGEEVHQLVQKKFQDSKNLATHYGPRGTFQNFTYTKPWAELEEIDYIYVKGWQVQQTASLTDSIDGRFPSDHFPLEAEVCIEER", "soluble on expression in E. coli": "not soluble"}
{"sequence": "MRKLKYHEKKLIKKVNFLEWKREGNHRENEITYRYHMGSRDDYKKYSGLCRMVQKLTNIMKQMDPADPFRIQMTDMLLEKLYNMGVIPTRKSLTLTERLSVSSFCRRRLSTVLVHLKFAEHHKEAVTYIEQGHVRVGPETITDPAFLVTRNMEDFITWVDSSKIKRKVLEYNDTLDDYDMLA", "soluble on expression in E. coli": "not soluble"}
{"sequence": "GMDIQNMPREQLGVCAEGNLHSVYLMFNANDNVESQLRPCIANVAQYIYELTDQYSDSAFNGFVAIGANYWDSLYPESRPEMLKPFPAMQEGNREAPAIEYDLFVHLRCDRYDILHLVANEISQMFEDLVELVEEERGFRFMDSRDLTGFVDGTENPKGRHRQEVALVGSEDPEFKGGSYIHVQKYAHNLSKWHRLPLKKQEDIIGRTKQDNIEYESEDKPLTSHIKRVNLKDENGKSIEILRQSMPYGSLKEQGLMFISTCRTPDHFEKMLHSMVFGDGAGNHDHLMHFTSALTGSSFFAPSLDFLMQFDN", "soluble on expression in E. coli": "soluble"}
{"sequence": "SLGGEVSGKGPAVAAREARDPLPDAGASPAPSRCCRRRSSVAFFAVCDGHGGREAAQFAREHFWGFIKKQKGFTSSEPAKVCAAIRKGFLACHLAMWKKLAEWPKTMTGLPSTSGTTASVVIIRGMKMYVAHVGDSGVVLGIQDDTKDDFVRAVEVTQDHKPELPKERERIEGLGGSVMNKSGVNRVVWKRPRLTHNGPVRRSTVIDQIPFLAVARALGDLWSYDFFSGEFVVSPEPDTSVHTLDPQKHKYIILGSDGLWNMIPPQDAISMCQDQEEKKYLMGEHGQSCAKMLVNRALGRWRQRMLRADNTSAIVICISPEVDNQGNFTNEDELYLNLTDGPSYNSQETCVMTPSPCSTPPVKSLEEDPWPRVNSKDHIPALVRSNAFSENFLEVSAEIARENVQGVVIPSKDPEPLEEN", "soluble on expression in E. coli": "soluble"}
{"sequence": "MSAITITEAAQAYLAELLEKQSTPGIGIRIFITQPGTQYAETCIAYCKPGEEKVEDTAIALKDFTAWIDAVSEPFLEDAVVDYATDRMGGQLTIKAPNAKVPMVNEDSPITERINYYLQTEINPGLASHGGQVSLVDVVEDNIAVLRFGGGCQGCGMVDMTLKDGVEKTLIERIPELKGVRDVTDHSNKENAYY", "soluble on expression in E. coli": "not soluble"}
{"sequence": "MSLSSARFDSSDRSAWYMGPVSRQEAQTRLQGQRHGMFLVRDSSTCPGDYVLSVSENSRVSHYIINSLPNRRFKIGDQEFDHLPALLEFYKIHYLDTTTLIEPAPRYPSPPMGSVSAPNLPTAEDNLEYVRTLYDFPGNDAEDLPFKKGEILVIIEKPEEQWWSARNKDGRVGMIPVPYVEKLVRSSPHGKHGNRNSNSYGIPEPAHAYAQPQTTTPLPAVSGSPGAAITPLPSTQNGPVFAKAIQKRVPCAYDKTALALEVGDIVKVTRMNINGQWEGEVNGRKGLFPFTHVKIFDPQNPDENEGHHHHHH", "soluble on expression in E. coli": "soluble"}
{"sequence": "MGSDKIHHHHHHMSQNVYQFIDLQRVDPPKKPLKIRKIEFVEIYEPFSEGQAKAQADRCLSCGNPYCEWKCPVHNYIPNWLKLANEGRIFEAAELSHQTNTLPEVCGRVCPQDRLCEGSCTLNDEFGAVTIGNIERYINDKAFEMGWRPDLSDVKPTGKTVAIIGAGPAGLACADVLTRNGVKAVVFDRHPEIGGLLTFGIPAFKLEKEVMTRRREIFTGMGIEFKLNTEVGRDVQLDDLLKEYDAVFLGVGTYQSMRGGLDNEDAPGVYDALPFLIANTKQIMGFGETADEPYVSMEGKRVVVLGGGDTAMDCVRTSVRQNAAHVICAYRRDEENMPGSKREVKNAREEGVEFQFNVQPLGVEVNANGKVCGVKMARTEMGQPDAKGRRRAEIVPGSEHVVPADAVVMAFGFRPHSMEWLAKHSVEMDSQGRIIAPEGSENAFQTSNPKIFAGGDIVRGSDLVVTAIAEGRKAADGILNYLEV", "soluble on expression in E. coli": "not soluble"}
{"sequence": "MVNEYKRIVLLRGLECINKHYFSLFKSLLARDLNLERDNQEQYTTIQIANMMEEKFPADSGLGKLIEFCEEVPALRKRAEILKKERSEGETSLEKNGQEAGPATPTSTTSHMLASERGETSATQEETSTAQAGTSTAQAGTSTAQAGTSTA", "soluble on expression in E. coli": "soluble"}
